Columns and labels:
[1] = test system: GGhyrfk-amide (synthetic); settings: Cu complex; Vmax 2.86 RFU/min
[2] = test system: GGHYrFK-amide (synthetic); test: cleavage_in_vitro; settings: Cu complex; KM 0.85 µM; turnover number 32; 1 mM ascorbate, 1 mM H2O2
[3] = test system: GGHYrFK-amide (synthetic)

Sequence: GGCAGAAAGCGUCUAGCCAUGGCGUUAGUAUGCC [HCV IRES SL IIb RNA]
- Kd [1]: 6.09 µM
- activity [2]: 0.53 min-1 (kcat)
- Kd [3]: 0.044 µM

From US20120289454
